Biological target: human VWF-A2 fragment (human)

human recombinant wild-type complement factor H, sequence (P08603 19-1231): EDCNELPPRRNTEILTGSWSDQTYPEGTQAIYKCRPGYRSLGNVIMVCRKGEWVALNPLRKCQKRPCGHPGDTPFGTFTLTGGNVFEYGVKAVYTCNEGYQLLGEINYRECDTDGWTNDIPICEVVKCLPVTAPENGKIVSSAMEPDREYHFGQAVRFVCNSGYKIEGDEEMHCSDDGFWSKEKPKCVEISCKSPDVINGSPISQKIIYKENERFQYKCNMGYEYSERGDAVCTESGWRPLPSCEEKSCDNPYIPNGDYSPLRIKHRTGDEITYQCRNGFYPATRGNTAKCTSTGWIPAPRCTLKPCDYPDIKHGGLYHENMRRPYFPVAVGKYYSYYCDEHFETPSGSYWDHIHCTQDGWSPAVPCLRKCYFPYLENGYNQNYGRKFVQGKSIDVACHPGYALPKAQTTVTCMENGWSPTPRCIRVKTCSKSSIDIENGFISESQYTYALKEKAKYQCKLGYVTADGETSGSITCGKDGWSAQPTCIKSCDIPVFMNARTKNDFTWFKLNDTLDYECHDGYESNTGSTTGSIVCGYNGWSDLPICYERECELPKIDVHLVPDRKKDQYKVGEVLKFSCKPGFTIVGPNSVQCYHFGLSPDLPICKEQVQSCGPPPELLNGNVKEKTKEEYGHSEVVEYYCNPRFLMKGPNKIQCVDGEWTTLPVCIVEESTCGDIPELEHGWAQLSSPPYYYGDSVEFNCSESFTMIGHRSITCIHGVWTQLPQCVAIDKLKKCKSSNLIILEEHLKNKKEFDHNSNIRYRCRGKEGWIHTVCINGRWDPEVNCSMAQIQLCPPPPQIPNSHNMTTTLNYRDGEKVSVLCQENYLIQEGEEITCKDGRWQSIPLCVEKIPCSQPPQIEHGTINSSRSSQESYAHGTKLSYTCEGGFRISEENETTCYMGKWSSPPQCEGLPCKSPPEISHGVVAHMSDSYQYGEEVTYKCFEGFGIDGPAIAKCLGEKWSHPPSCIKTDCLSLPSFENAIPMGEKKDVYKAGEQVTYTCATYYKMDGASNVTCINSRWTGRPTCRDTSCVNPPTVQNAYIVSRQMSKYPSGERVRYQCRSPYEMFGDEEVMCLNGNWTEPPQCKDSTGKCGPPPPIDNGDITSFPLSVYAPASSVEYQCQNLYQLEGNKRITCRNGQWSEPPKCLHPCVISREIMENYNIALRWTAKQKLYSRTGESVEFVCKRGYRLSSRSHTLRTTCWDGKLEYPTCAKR

optical tweezer pulling of VWF-A2 (Avi-His/SpyTag, biotinylated construct) with 1.0 μM WT-CFH: contour length Lc (no CFH: 55,3 nm) [nm] | optical tweezer pulling of VWF-A2 with 1.0 μM WT-CFH: energy barrier position γ, Bell-Evans fit (no CFH: 0.71 nm) [nm] | optical tweezer pulling of VWF-A2 with 1.0 μM WT-CFH: persistent length Lp (no CFH: 0.28 nm) [nm] | optical tweezer pulling of VWF-A2 with 1.0 μM WT-CFH: unstressed unfolding rate ku0, Bell-Evans fit (no CFH: 0.15 s^-1) [s⁻¹] | optical tweezer pulling of VWF-A2 (Avi-His/SpyTag, biotinylated construct) with 1.0 μM W1183R-CFH: contour length Lc (no CFH: 55,3 nm) [nm] | optical tweezer pulling of VWF-A2 with 1.0 μM W1183R-CFH: energy barrier position γ, Bell-Evans fit (no CFH: 0.71 nm) [nm] | optical tweezer pulling of VWF-A2 with 1.0 μM W1183R-CFH: persistent length Lp (no CFH: 0.28 nm) [nm] | optical tweezer pulling of VWF-A2 with 1.0 μM W1183R-CFH: unstressed unfolding rate ku0, Bell-Evans fit (no CFH: 0.15 s^-1) [s⁻¹] | Substance
40 | 1.88 | 0.38 | 0.017 | – | – | – | – | human recombinant wild-type complement factor H (from UniProt P08603 19-1231) (natural protein)
– | – | – | – | 31.8 | 1.38 | 0.38 | 0.034 | human recombinant W1183R complement factor H (from UniProt P08603 19-1231) (natural protein)

Source: publication PMC13123425
